Data taken from patent EP4682166A1 (Guangzhou Enmai Biotechnology Co., Ltd, dated 2026).
Changes are numbered by the printed parent chain. In names and notes the source's numbering stands. One block for each binder: values may come before it.

Experiments:
[1] = target: T1, human NMI (N-myc Interacting protein), recombinant protein (human, UniProt Q13287 1-307, limits assumed); assay: ELISA EC50 against parent 98G10
T1 construct: Gene ID: 9111; also called hNMI; antigen
T1 sequence (looked up): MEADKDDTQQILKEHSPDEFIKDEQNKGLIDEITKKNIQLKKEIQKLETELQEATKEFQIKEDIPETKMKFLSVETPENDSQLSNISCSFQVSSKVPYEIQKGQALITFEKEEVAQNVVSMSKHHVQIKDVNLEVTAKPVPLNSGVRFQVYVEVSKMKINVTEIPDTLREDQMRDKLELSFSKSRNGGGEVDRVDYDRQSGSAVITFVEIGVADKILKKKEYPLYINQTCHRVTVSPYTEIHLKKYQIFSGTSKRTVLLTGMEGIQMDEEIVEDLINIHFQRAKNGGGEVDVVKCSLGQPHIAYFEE

[2] = target: T1, human NMI (N-myc Interacting protein), …; assay: ELISA EC50 against parent 39B4
[3] = target: T1, human NMI (N-myc Interacting protein), …; assay: ELISA EC50 against parent B-8
[4] = target: T1, human NMI (N-myc Interacting protein), …; assay: ELISA, binding to hNMI
[5] = target: T1, human NMI (N-myc Interacting protein), …; assay: ELISA EC50 against parent B-8; remark: listed apart in the source

Fold decrease in affinity [1]: > 100 fold
B1: 98G10 mutant G55H (VH) (antibody, V domains shown)
VH: QEQLEESGGDLVKPEGSLTLTCTASGFSFSASYWICWVRQAPGKGLEWIACIYGHSSGSAYYASWAKGRFTISKTSSTTVTLQMTSLTAADTATYFCARAGYYNYGSAGDIYPSSFKLWGPGTLVTVSS
VL: DIVMTQTPASVEAAVGGTVTINCQASQSISTALAWYQQKPGQPPKLLIYTASKVASGVPSRFSGSGSGTQFTLTISDLECADAATYYCQNYYYSSSSITFGGGTEVVVK

Fold decrease in affinity [2]: > 500 fold
B2: 39B4 mutant G106R (VH) (antibody, V domains shown)
VH: QEQLVESGGGLVQPEGSLTLTCTASGFSFSSSYWICWVRQAPGKGLEWIACIYAGTSGSTYYASWAKGRFTISKTSSTTVDLQMNSLTAADTATYFCARAGYYTYRAGVYIYPSSFKLWGPGTLVTVSS
VL: B1 VL with I2V, N22K, Q27E, S30G, T31N, T50S, K53N, V54L, N90S

Fold decrease in affinity [1]: > 100 fold
B3: 98G10 mutant G58V (VH) (antibody, V domains shown)
VH: B1 VH with H55G, G58V
VL: B1 VL

Fold decrease in affinity [2]: > 500 fold
B4: 39B4 mutant G106Y (VH) (antibody, V domains shown)
VH: B2 VH with R106Y
VL: B1 VL with I2V, N22K, Q27E, S30G, T31N, T50S, K53N, V54L, N90S

Fold decrease in affinity [2]: > 500 fold
B5: 39B4 mutant Y102F (VH) (antibody, V domains shown)
VH: B2 VH with Y102F, R106G
VL: B1 VL with I2V, N22K, Q27E, S30G, T31N, T50S, K53N, V54L, N90S

Fold decrease in affinity [2]: > 500 fold
B6: 39B4 mutant A107Q (VH) (antibody, V domains shown)
VH: B2 VH with R106G, A107Q
VL: B1 VL with I2V, N22K, Q27E, S30G, T31N, T50S, K53N, V54L, N90S

Fold decrease in affinity [1]: > 500 fold
B7: 98G10 mutant S56P (VH) (antibody, V domains shown)
VH: B1 VH with H55G, S56P
VL: B1 VL

Fold decrease in affinity [1]: > 500 fold
B8: 98G10 mutant S57R (VH) (antibody, V domains shown)
VH: B1 VH with H55G, S57R
VL: B1 VL

Fold decrease in affinity [2]: > 500 fold
B9: 39B4 mutant A107R (VH) (antibody, V domains shown)
VH: B2 VH with R106G, A107R
VL: B1 VL with I2V, N22K, Q27E, S30G, T31N, T50S, K53N, V54L, N90S

Fold decrease in affinity [2]: > 500 fold
B10: 39B4 mutant V109Q (VH) (antibody, V domains shown)
VH: B2 VH with R106G, V109Q
VL: B1 VL with I2V, N22K, Q27E, S30G, T31N, T50S, K53N, V54L, N90S

Fold decrease in affinity [1]: > 500 fold
B11: 98G10 mutant S57K (VH) (antibody, V domains shown)
VH: B1 VH with H55G, S57K
VL: B1 VL

Fold decrease in affinity [1]: > 500 fold
B12: 98G10 mutant S56N (VH) (antibody, V domains shown)
VH: B1 VH with H55G, S56N
VL: B1 VL

Fold decrease in affinity [2]: > 500 fold
B13: 39B4 mutant V109K (VH) (antibody, V domains shown)
VH: B2 VH with R106G, V109K
VL: B1 VL with I2V, N22K, Q27E, S30G, T31N, T50S, K53N, V54L, N90S

Fold decrease in affinity [1]: > 100 fold
B14: 98G10 mutant G55W (VH) (antibody, V domains shown)
VH: B1 VH with H55W
VL: B1 VL

Fold decrease in affinity [1]: > 500 fold
B15: 98G10 mutant S57Q (VH) (antibody, V domains shown)
VH: B1 VH with H55G, S57Q
VL: B1 VL

Fold decrease in affinity [3]: > 100 fold
B16: B-8 mutant G106K (VH) (antibody, V domains shown)
VH: QSLEESGGDLVKPGASLTLTCTASGFSFSSSYYMCWVRQAPGKGLEWIACIYAGSSGSTYYASWAKGRFTISKTSSTTVTLQMTSLTAADTATYFCAREYSYDDYKDFWGFNLWGPGTLVTVSS
VL: ALVMTQTPSSVSAAVGGTVTINCQASQNIYTNLAWYQQKPGQPPKLLIYGASNLESGVPSRFKGSGSGTEYTLTISDLECDDAATYYCQSSLYSRIADRANAFGGGTEVVVK

EC50 [4]: 0.238 nM
Fold decrease in affinity [5]: 0.77 fold
B17: B-8-5 (antibody, V domains shown)
VH: B16 VH with K106G, F111A
VL: B16 VL
notes: also called B-8 F111A (VH)

EC50 [4]: 0.698 nM
Fold decrease in affinity [5]: 2.26 fold
B18: B-8-1 (antibody, V domains shown)
VH: B16 VH with K106G
VL: B16 VL with Y93E
notes: also called B-8 Y93E (VL)

EC50 [4]: 0.177 nM
Fold decrease in affinity [5]: 0.57 fold
B19: B-8-4 (antibody, V domains shown)
VH: B16 VH with Y61E, K106G
VL: B16 VL
notes: also called B-8 Y61E (VH)

Fold decrease in affinity [3]: > 500 fold
B20: B-8 mutant S101K (VH) (antibody, V domains shown)
VH: B16 VH with S101K, K106G
VL: B16 VL

Fold decrease in affinity [3]: > 500 fold
B21: B-8 mutant S101Y (VH) (antibody, V domains shown)
VH: B16 VH with S101Y, K106G
VL: B16 VL

Fold decrease in affinity [3]: > 100 fold
B22: B-8 mutant T31V (VL) (antibody, V domains shown)
VH: B16 VH with K106G
VL: B16 VL with T31V

EC50 [4]: 1.45 nM
Fold decrease in affinity [5]: 4.68 fold
B23: B-8-2 (antibody, V domains shown)
VH: B16 VH with K106G
VL: B16 VL with S91R
notes: also called B-8 S91R (VL)

EC50 [4]: 0.176 nM
Fold decrease in affinity [5]: 0.57 fold
B24: B-8-3 (antibody, V domains shown)
VH: B16 VH with Y33E, K106G
VL: B16 VL
notes: also called B-8 Y33E (VH)
